Reference: US10077436B2, “Beta-glucosidase enzymes for increased biomass saccharification” (Edeniq, Inc., priority 2013, dated 2018)

Columns and labels:
Assay type in all cases: biochemical
[1] = BG activity assay / kinetics using pNPG substrate; details: all conditions except initial glucose 36 g/L
Experimental: BG activity assay using pNPG is one of the two commonly used standard assays to measure BG activity, which utilizes hydrolysis of p-nitrophenyl-β-D-glucopyranoside (pNPG) by BG into a yellow colored product, p-nitrophenol (pNP), that has a strong absorbance at 405 nm. One pNPG unit is defined as the amount of enzyme that produces 1 μmol of pNP per min. Briefly, to determine BG activity, 25 μL of diluted enzyme in 200 mM sodium acetate buffer (pH 5.0) was mixed with 25 μL of the same buffer and 25 μL of RO water (or glucose solution for the kinetic study) and the mixture was preincubated at 50° C. for 5 min. […] The reaction was then terminated by adding 100 μL of 0.25 M sodium carbonate, and the amount of pNP produced was determined by measuring absorbance at 405 nm using a predetermined calibration curve. […]
To determine the kinetic properties, a competitive inhibition mechanism was hypothesized as proposed in the literature (Chauve et al, 2010; Krogh et al, 2010). […] The turnover number, Kcat, can be calculated by Equation (2), where [Et] is the total amount of enzyme.
Conventionally, linearization methods can be used to determine the kinetic parameters based on Equation (1). […] Thus, Vmax, Km and Ki can be determined simultaneously from this fitting process, and Km/Ki can then be calculated. Kcat can be obtained by Equation (2) and Kcat/Km can be calculated accordingly.

[2] = BG (cellobiase) activity assay / kinetics using cellobiose substrate, HPLC
Experimental: BG activity assay using cellobiose is the other standard assay to measure BG or cellobiase activity, which utilizes hydrolysis of cellobiose by cellobiase into two molecules of glucose, the last step of enzymatic hydrolysis of cellulose. One cellobiase unit (commonly termed as CBU) is defined as the amount of enzyme that converts […] of cellobiose or produces 2 μmol of glucose per min. Briefly, to determine BG activity, 25 μL of diluted enzyme in 50 mM citrate buffer (pH 4.8) equilibrated to 50° C. was mixed with 25 μL cellobiose (or cellobiose/glucose mixture for the kinetic study) to start the reaction. The mixture was incubated at 50° C. for 10 min, and the reaction was terminated by incubating the mixture at 99° C. for 5 min. Different methods are available to measure the glucose produced in the assays. For the kinetic study, HPLC was used. […]
The specific activity used here was determined by the initial velocity approach that is required by implementing Michaelis-Menten model (Copeland, 2000). The specific activity was determined by measuring consumption of cellobiose in the first 10 min of reaction and was expressed as μmol min^−1 mg^−1, where mg^−1 means per mg of total protein. The relative activity was determined based on the maximum activity obtained in the absence of initial glucose inhibition.

[3] = BG supplementation of Celluclast in 48-hour saccharification of filter paper; details: for optimal CBU/FPU ratio (optimal BG dosage): 10% solid loading, 20% Celluclast loading
Experimental: Experimental conditions in this example using filter paper substrate was 10% solid loading and 20% Celluclast loading based on glucan content. Different BG dosage based on CBU:FPU (BG activity/total cellulase activity) was tested.
Enhancement of glucose release (Equation 5) and lift of sugar conversion (Equation 6) was compared among various BGs at the optimal dosage over time in FIG. 8.

[4] = BG supplementation of commercial cellulase preparations in corn stover saccharification; details: added to commercial enzyme preparation, 50° C.
Source text: In this experiment, 10% CTecII per gram glucan and 0.5% HtecII per mass solids was used as a control level for high saccharification of pretreated biomass. The relatively low enzyme dose of 3% Genencor® Trio per gram glucan was used as a base enzyme level to observe increases in saccharification from supplementation with BG enzymes. Enzyme doses of 0.5%, 1% and 2% of HtecII were used in a parallel set of reactions to likewise observe increases in saccharification from supplementation with concentrated extract from yEdQ745, yeast expressing wild type BG and another set of samples supplemented with commercial BG. • BG were used from two sources: wild type BG (yEdQ745) and commercial BG (Nozyme product SP-188). • Commercial cellulase preparations: Novozymes CtecII, Novozymes HtecII and Genencor® Trio. • Biomass used for the experiment: For each reaction 3 gms from Run 177 corn stover at 10% final solid concentration. • BG addition: 2 mL of wild type BG concentrated from yEdQ745 (11× concentrated) was added to the respective reaction. • Commercial BG: 1 uL/gm of biomass • Buffer: sodium citrate buffer pH5.0 was used for the reaction • Saccharification temperature: 50° C./24 and 48 hours.

Molecule	specific activity towards pNPG, comparison [1]	specific activity towards cellobiose, comparison ([2]; absence of glucose inhibition)	optimal CBU/FPU ratio (optimal BG dosage) [3]	performance in enhancing saccharification, comparison ([3]; optimal BG dosage)	enhancement of sugar release ([3]; optimal BG dosage, up to 48 h)	lift of sugar conversion ([3]; optimal BG dosage, up to 48 h)	specific activity towards cellobiose, comparison ([2]; all conditions tested)	effect of BG supplementation on glucose release / glucan to glucose conversion [4]
yEdQ885-BG: improved (modified) in-house beta-glucosidase mutant secreted by yeast strain yEdQ885 (protein, synthetic mutant beta-glucosidase (BG), BG acid/base mutant #8, yEdQ885 -> Y363C/Y375F/A446A/V498V/G510G/Y560Y/Y610F) MRFTLIEAVALTAVSLASADELAYSPPYYPSPWANGQGDWAQAYQRAVDIVSQMTLDEKVNLTTGTGWELELCVGQTGGVPRLGVPGMCLQDSPLGVRDSDYNSAFPAGMNVAATWDKNLAYLRGKAMGQEFSDKGADIQLGPAAGPLGRSPDGGRNWEGFSPDPALSGVLFAETIKGIQDAGVVATAKHYIAYEQEHFRQAPEAQGFGFNISESGSANLDDKTMHELYLWPFADAIRAGAGAVMCSYNQINNSYGCQNSYTLNKLLKAELGFQGFVMSDWAAHHAGVSGALAGLDMSMPGDVDYDSGTSYWGTNLTISVLNGTVPQWRVDDMAVRIMAAYYKVGRDRLWTPPNFSSWTRDECGYKYYYVSEGPFEKVNQYVNVQRNHSELIRRIGADSTVLLKNDGALPLTGKERLVALIGEDAGSNPYGANGCSDRGCDNGTLAMGWGSGTANFPYLVTPEQAISNEVLKHKNGVFTATDNWAIDQIEALAKTASVSLVFVNADSGEGYINVDGNLGDRRNLTLWRNGDNVIKAAASNCNNTIVVIHSVGPVLVNEWYDNPNVTAILWGGLPGQESGNSLADVLYGRVNPGAKSPFTWGKTREAYQDFLVTEPNNGNGAPQEDFVEGVFIDYRGFDKRNETPIYEFGYGLSYTTFNYSNLEVQVLSAPAYEPASGETEAAPTFGEVGNASDYLYPSGLQRITKFIYPWLNGTDLEASSGDASYGQDSSDYLPEGATDGSAQPILPAGGGPGGNPRLYDELIRVSVTIKNTGKVAGDEVPQLYVSLGGPNEPKIVLRQFERITLQPSEETKWSTTLTRRDLANWNVEKQDWEITSYPKMVFVGSSSRKLPLRASLPTVH	higher specific activity towards pNPG than both yEdQ745-BG (wild type) and S-BG	higher specific activity towards cellobiose than both yEdQ745-BG (wild type) and S-BG	2	outperformed the other three BGs	more than 50%	more than 13%	–	–
yEdQ745-BG: wild type Aspergillus niger beta-glucosidase (Accession CAB75696.1, SEQ ID NO:2) secreted by yeast strain yEdQ745 (protein, Aspergillus niger; wild type beta-glucosidase (BG)) MRFTLIEAVALTAVSLASADELAYSPPYYPSPWANGQGDWAQAYQRAVDIVSQMTLDEKVNLTTGTGWELELCVGQTGGVPRLGVPGMCLQDSPLGVRDSDYNSAFPAGMNVAATWDKNLAYLRGKAMGQEFSDKGADIQLGPAAGPLGRSPDGGRNWEGFSPDPALSGVLFAETIKGIQDAGVVATAKHYIAYEQEHFRQAPEAQGFGFNISESGSANLDDKTMHELYLWPFADAIRAGAGAVMCSYNQINNSYGCQNSYTLNKLLKAELGFQGFVMSDWAAHHAGVSGALAGLDMSMPGDVDYDSGTSYWGTNLTISVLNGTVPQWRVDDMAVRIMAAYYKVGRDRLWTPPNFSSWTRDEYGYKYYYVSEGPYEKVNQYVNVQRNHSELIRRIGADSTVLLKNDGALPLTGKERLVALIGEDAGSNPYGANGCSDRGCDNGTLAMGWGSGTANFPYLVTPEQAISNEVLKHKNGVFTATDNWAIDQIEALAKTASVSLVFVNADSGEGYINVDGNLGDRRNLTLWRNGDNVIKAAASNCNNTIVVIHSVGPVLVNEWYDNPNVTAILWGGLPGQESGNSLADVLYGRVNPGAKSPFTWGKTREAYQDYLVTEPNNGNGAPQEDFVEGVFIDYRGFDKRNETPIYEFGYGLSYTTFNYSNLEVQVLSAPAYEPASGETEAAPTFGEVGNASDYLYPSGLQRITKFIYPWLNGTDLEASSGDASYGQDSSDYLPEGATDGSAQPILPAGGGPGGNPRLYDELIRVSVTIKNTGKVAGDEVPQLYVSLGGPNEPKIVLRQFERITLQPSEETKWSTTLTRRDLANWNVEKQDWEITSYPKMVFVGSSSRKLPLRASLPTVH	–	–	1	–	–	–	the lowest	dramatically increased
